Laboratory results from the DeepSol protein solubility set.

Experiment: soluble on expression in E. coli; label from the status in PepcDB or PDB records

Sequence	soluble on expression in E. coli
MEYFNAGGGGSTGNGSTDPYAVIPQQFGNGGQQPQQQVFTDYQQDGSATDYETYQQQQQQYRAAQASQQSSSMYYQNQMTAAQANYFPIHSASEHDFLGPQQPPSATTSVSGAAGAPYQSASGGNKEFMMQHQQRRGNQSGQQQQNQPSQQNNQQQQNQGARQQHPQQMQQQQQSNQSAHFMHQQLQAVQQQQAQQMHHRLQGAPINPQQFMVPPPTMMQPQQMQQAQQQQAQQMHQMQIHHQQHPQMMQQHAQQGYHPHQQNQQHQAGQHQQSHHQSQNHNQHRNHNQSHSGPHHIPQNLMMPRCMLKDWPIRCVVEGKYHAVIIGPNGSTIKDIASSTRCRVDFVNLSKKERTVLGNNDRILTVHGVAEQATKAVARILDVIQSEAVKDDVNVGADTVLRMRAHNQLCGRLIGKAGSSIKEIMQKTGTNITVTKYIEPPGGISGLTANELLGLMERTIMVRGPSIEAVVQAEALISAKLKKCYESDSQLRAQSMQCPMPPMMMPPILPPGASSSAVSAPHFIPTPPGVLQIQPGTTNLRQVRMWVPDSMIGALIGAKGKNIKMIIRDTGASVKIEAPEEKTQREAEEAEKKRKLDETDSGCEGVASGDHPQEFLEDNATINSSDAIEEKPKPVSERMVTINGDDLQLLKAQSYVFSKIAETSSSLPSSGMDGDRSHMLRIRTEVSVPTRIIGRIIGKGGQNVRELQRITGAVVKIPEEERNGGEVYRHDDGLEEDMTMIRTIGNMYSTHNVQFRLAHLVNEYYRSGDHRNKSSDYKGGRPHSAPSSGQEKDGSALEKMDQLGTIAPISNSNRASPKSVSPPKSKSP	not soluble
MGSSHHHHHHSSGLVPRGSMSTSWSDRLQNAADMPANMDKHALKKYRREAYHRVFVNRSLAMEKIKCFGFDMDYTLAVYKSPEYESLGFELTVERLVSIGYPQELLSFAYDSTFPTRGLVFDTLYGNLLKVDAYGNLLVCAHGFNFIRGPETREQYPNKFIQRDDTERFYILNTLFNLPETYLLACLVDFFTNCPRYTSCETGFKDGDLFMSYRSMFQDVRDAVDWVHYKGSLKEKTVENLEKYVVKDGKLPLLLSRMKEVGKVFLATNSDYKYTDKIMTYLFDFPHGPKPGSSHRPWQSYFDLILVDARKPLFFGEGTVLRQVDTKTGKLKIGTYTGPLQHGIVYSGGSSDTICDLLGAKGKDILYIGDHIFGDILKSKKRQGWRTFLVIPELAQELHVWTDKSSLFEELQSLDIFLAELYKHLDSSSNERPDISSIQRRIKKVTHDMDMCYGMMGSLFRSGSRQTLFASQVMRYADLYAASFINLLYYPFSYLFRAAHVLMPHESTVEHTHVDINEMESPLATRNRTSVDFKDTDYKRHQLTRSISEIKPPNL	soluble
MGVHVVLYQPEIPANTGNIARTCAATGTELHLIRPLGFSTDDKMLKRAGLDYWQHVKITYYDSIEEFYEKNKDGEFFYLTKYGEKAHTAFDYSKREKDYYFVFGRETNGLPANVIEENFDHCLRIPMTDKVRSLNLSNTAAILIYEAFRQQNYPGLDLEIVY	not soluble
MSKKFEGSVAPRERINISYVPKTDGQTAEVELPLNMLVVGDTGNTQETSSLDERQAVSVNKHNFGAVMAEAAIGLNFTVPATLKGSTTDDEMNVALNIKSLDDFSPDSVARQVPEVNKLLELREALTALKGPMGNLPAFRTQLQALLENEESREQLLKEIGQVSNK	soluble
MLVEEAPVDADLGAAVTRLRALALEALCAGSLSAEQVLDHTRPAALALALAVCTPAEYARPWFRRATGDVRVLLARRLAEELGEDHVRWAAAIDLSGSFAGSVGELLHSDEAPGSVHRFLHPHRSSHATQNLLLALAPRDVAARYLAGLVETRRPNVVAYKMDWMLRSGPLSRPLVARGVGGSVGGQRELLGNDLCPDFVLEQVHGGYARHVMYREIIPPKVLKRAFRAYAASEPAHEVRAWAVSLLGERTDRLMDLAWSLTDAPTLLHRLVAAVLDRADPATLTCLYGALAEAAGPEPVWALDLERAGSLDAVQPAVRASMAAGSAEPLVEAAKRIPRRHWLDVLDEEAFGGQMLRDEAELDRTGHFPLEALVAARLDGRPERWAEVARQVAGGRMPVEAVVEGVVAAAIEEIGESAAKTAPETPTEAAPETTAEAAPQTPAEAAPQTPANAAPQTPTKPAPQPPAASPIAAPPAHAAPSASTT	not soluble
MAHHHHHHMDATPHMHAKTIFMTHWDGLEKDSDARIIVVGATNRRFTIDDAIRRRLPLQLEVPPPDAKAREKILSILLAHDLEYNPKKDGLIRYVALKTAEYTGSDLSELCKAAALMPLREMESMKAGGASSAAPETVPPLTQQHFDKAMERVKASK	soluble
MEAVQSSGRRMVHAIVWRYFEPRLRGSSVSNPGSNLVRFSEFCRGSMGFHICRLCDQASQWLSLDRSTSQWLSLDRSTVTTAFVWTDAFTTGTAGFNWDNKQPDNKDLNQPCAIVLAAHAPIHFQSYQFQPAMMDDAECAADSVASMGRTISGYVCGKPARQ	not soluble
MIYSVGNRLGNKLTGIEKAMINRHNLFKNHSITSKLIFASWSPRLHFNASLFQIEDDDILSLYDVLQDSINIKSIHKDWITHWTKECNYTLKFIENTNDIKIYEKSNYRMYVHFNDSNYQHLDYINHFDVNQRKIRRDLYDSRGFLSCSRTLTTNQKVVCEHYYTPEGTIKFQKFFNPELENSQSQLIIYNTDSQLKYFNNDQELLAFAIEKLYKNGDIFLSDKNINTAPIFNNTSETIPVLAVLHSTHVKNIDMVYESDIKNTYKHVFNNLNRYSGIIVSTKQQQLDISARINNEIPVHTIPVGYIDEHFTNLKRNNHSINNNKIISVARYSPEKQLNHQIELVSKLIKEFPNIQLHLYGFGKEEEKYKQLITEYNLENNVFLRGFRRNLSAEIQDAYMSLITSNMEGFNLGLLETITEGIPPVGYNSKYGPSELILNNENGYLINKNDKDELYNRVRNLLLDKTLRDTFSQECIKHSKAFSSKIVMKLWEDRFSTINSSYE	not soluble
MGSDKIHHHHHHMMPAKWDEVRPLLDRFSRDLPTNATVWFMMPDGSYYATAKGGFTDQNLKDCTCFPKLIGGKEVLGELVISRSTGQRSIVVAAPVVADGKVVAAVGVSVDAVKLIEVVESRMTLPENAYIYALDAKTKVTLHRYQARTFKTVFEIGNESLGDTFKKVMHREQGVFNYSLEGKKMNSIFRKSPVHGWYFFIAQQCK	not soluble
MASIWVGHRGTVRDYPDFSPSVDAEAIQKAIRGIGTDEKMLISILTERSNAQRQLIVKEYQAAYGKELKDDLKGDLSGHFEHLMVALVTPPAVFDAKQLKKSMKGAGTNEDALIEILTTRTSRQMKDISQAYYTVYKKSLGDDISSETSGDFRKALLTLADGRRDESLKVDEHLAKQDAQILYKAGENRWGTDEDKFTEILCLRSFPQLKLTFDEYRNISQKDIVDSIKGELSGHFEDLLLAIVNCVRNTPAFLAERLHRALKGIGTDEFTLNRIMVSRSEIDLLDIRTEFKKHYGYSLYSAIKSDTSGDYEITLLKICGGDD	soluble
MGSDKIHHHHHHMQPMDAEVLRILRKNNKSQDWGKINKKLHPKIVKYVDGKPVYQFFDTLNDNSFEKNGQLISIRTQPVNSFVPYHVHNYVEMMVVLSGRCVIKTQSESITLIQDEIMIIGCKTIHKIKPINDETIVVEIALKRTAFSLRDLTFLTHSRDAQSVSSTVFFLLSNDDSYGAFNVFHTQHDVNVVNKVNNIIREYYRPDNYSNQVIKFKILELFIRLVRLASKGPILQTQKEDHKNNEVDALTLLLYIEKNYKTVTLKSMAKHFKFHPNYLSSILKRKTGYTFIKLVHLQRINVAAEYLSLTDISIESISLAVGYEDPSCFYKIFRNHMGCSPREYRQRQAA	not soluble
MKEYKRPDMYDKLLPMERIHIEVFEPFNGEAIEGKYSYVLLCRDYRSSFMWLLPLKSTKFKHLIPVVSSLFLTFARVPIFVTSSTLDKDDLYDICEEIASKYGLRIGLGLKSSARFHTGGILCIQYALNSYKKECLADWGKCLRYGPYRFNRRRNKRTKRKPVQVLLSEVPGHNAKFETKRERVIENTYSRNMFKMAGGKGLIYLEDVNTFALANEADNSCNNNGILHNNNIGNDNFEEEVQKQFDLTEKNYIDEYDDLAHDSSEGEFEPNTLTPEEKPPHNVDEDRIESTGVAAPMQGTEEPEKGDQKESDGASQVDQSVEITRPETSYYQTLESPSTKRQKLDQQGNGDQTRDFGTSMEL	not soluble
MTENFAQLFEESLKEIETRPGSIIRGTIVAVNKDNVIVDAGLKSESVISIDQFKNAAGEVEVVVGDEIDVALDATDDGFGETILSREKAKRHEAWQVLEKAYEEKETVIGVINGKVKGGFTVEVSDIRAFLPGSLVDVRPVRDTAHLEGKPLEFKVIKLDQKRNNVVVSRRAVIEAEGSAERDELLESLAEGQEVKGIVKNLTDYGAFVDLGGIDGLLHITDMAWKRVKHPSEIVNVGDEIQVKVLKFDRERTRVSLGMKQLGEDPWVAIANRYPEGSKLSGRVTNLTDYGCFVEIQEGVEGLVHVSEMDWTNKNIHPSKVVNLGDTVEVLVLEIDEERRRISLGLKQCIANPWEEFAKNFNKGDKVSGKIKSITDFGIFIGLDGGIDGLVHLSDISWAGGEEAVRDYKKGDEIDAIVLQVDPERERISLGVKQAEDDPFNMYLADKKKGAIVTGKVTEVDAKGATILLAESVEGYLRVSDISVERIEDASTVLKVGDDVEARFMGVDRKNRTISLSIKAKDQADEREAMDNLNQVEETGLSAMAAAFKNAKNLEHHHHHH	soluble
MAHHHHHHMKTLAKKTLQGGVSGKCGSQIIIAHGLLGNSTNWMSVGRRLAAHDGVRGRLEEIHMLDMRNHGESPHFNAHTNATMASDIEHFVLQQQRQWQSRAGAEGDGGIVLIGHSMGGFAVMGSMLRRANETSLLLQSGVEELEQRCKRGDYYGWCDEQGNAAEMRAVNRAMGLPETQPLYDILYDCKGDNVARPPRVKAVVIVDITPSTALGTHRQHGQNSSETLDAMVAADLSRVHSFGDGNAELERVGVSNKAMRDFLLTNLRLDPRTKEATWRCNLPVLRADYNSIALGVSGWFLSASEKVSRDRGGELVAPLRCSLPTLFVFGQNSPYNTPEDRRLIPRFFSNAIEVEVEGAGHFVHYEKMQEFVNVVVPFLTEYL	not soluble
LSGYAQAGFSSLWLPTASSEKENYNTFDVKRITLRANVAITDKWSVTFIPDFAKRYTNLELYTSFRTCSGFGIRLGQFKTAFSIENQLSPTTIETISCGSMATNFLAAGNGSDPLMGAQSGRDVGLEIYGDLFNDILGYRLGVLNGQGINTLDGSKHKTLEGSLTLRPIECLSFTGSFMSGKTAALNDAPIKINSKQIMAGDLYDRSRWSVGGMFRSKYLDLRSEYLEGKDDDMISKGFYVTGVGRLFKNLDIIGSYDFMDLYERQQVHNITAGLQYWFFPKCRLQAQYVLSNPKGEYNNTHALLTQVQVAF	not soluble
MFDLAERLSSNKSNESKLSHKLKTMLFYQTEECRSLVNESFRFDGKDEPKCVKNRDEEFRQIDLLNPPEVVIIELNASQDVVQDAQRLAHLLPSQVSVVIVGSEDAISTIRLLKEMGFYYLFWPVSKQECSDFMKHVLDNHEQHRGLMANRKSKRVAMVGVKGGVGTSLISSEVSRMLSFDKGVSTLLVDHNYHGGNLDIFMGLKQHQKRIVQKGTLISNIDGTYALGLIRKITPMLSMLAIDSDELNAQELKEYTLAVQEQALKNSSVMIEDHAHLIRNEDDIIKLLQQVDVLVLVFDATVSSLRDYNRLNQLVKKNNLDNQTRVISVLNSSRPSNSGSVSAEEIEKYSGQRATISIPYDDKAPQYVLEGLQIVKTKSAMALPLMNLVALILGEEPKQESRSFLSFFKKKG	not soluble
MCFSPEDRKKTDHLLALDGAKERLKLFKADLLDEGSFELAIDGCETVFHTASPVAITVKTDPQVELINPAVNGTINVLRTCTKVSSVKRVILTSSMAAVLAPETKLGPNDVVDETFFTNPSFAEERKQWYVLSKTLAEDAAWRFAKDNEIDLIVLNPGLVTGPILQPTLNFSVAVIVELMKGKNPFNTTHHRFVDVRDVALAHVKALETPSANGRYIIDGPVVTIKDIENVLREFFPDLCIADRNEDITELNSVTFNVCLDKVKSLGIIEFTPTETSLRDTVLSLKEKCLV	soluble
